This assay addresses T1, IL-12 (Human IL12 (His Tag)), Sino Biological Cat. No. CT-050-H08H-20 (human, UniProt P29460 23-328; P29459 23-219).
T1 construct: Bought His-tagged p35/p40 heterodimer
T1 sequence (looked up) 1: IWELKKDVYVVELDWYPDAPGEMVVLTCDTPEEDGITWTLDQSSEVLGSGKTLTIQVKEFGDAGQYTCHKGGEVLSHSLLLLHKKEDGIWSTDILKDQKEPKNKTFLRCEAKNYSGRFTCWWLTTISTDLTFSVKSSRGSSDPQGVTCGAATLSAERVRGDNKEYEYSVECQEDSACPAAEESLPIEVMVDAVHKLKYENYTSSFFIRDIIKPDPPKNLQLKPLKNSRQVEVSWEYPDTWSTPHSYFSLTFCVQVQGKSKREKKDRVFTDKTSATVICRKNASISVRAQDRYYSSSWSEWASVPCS
T1 sequence (looked up) 2: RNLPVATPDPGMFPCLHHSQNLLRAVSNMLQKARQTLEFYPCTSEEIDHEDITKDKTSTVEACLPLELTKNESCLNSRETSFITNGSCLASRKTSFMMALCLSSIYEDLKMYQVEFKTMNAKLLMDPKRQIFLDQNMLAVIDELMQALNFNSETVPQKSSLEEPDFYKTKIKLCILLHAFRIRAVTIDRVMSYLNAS
Briefly: FACS competition, IL12-His (40 nM mixed 1:1) on 293T-IL-12RB1&IL-23R cells. On the procedure: 200 μL of 1% PBSA was added into each sample, and the mixture was centrifuged at 1200 rpm for 5 min to discard the supernatant. According to experiment design, correspondingly diluted antibody (highest final concentration of 60 μg/mL, 3-fold dilution, 8 concentrations in total) and IL12-His (Sino Biological, Cat. No.: CT-050-H08H-20) (40 nM) were mixed at a ratio of 1:1, and a blank control was set. The mixture of antibody and IL12 was incubated on ice for 30 min and then added to the cell precipitate at 100 μL/sample. The resulting mixture was well mixed and incubated on ice for 60 min. 200 μL of 1% PBSA was added, and the mixture was centrifuged at 1200 rpm for 5 min to discard the supernatant, and then washed twice. THETM His tag antibody (FITC) (Genscript, Cat. No.: A01620) was diluted at a ratio of 1:500 and added to each tube at 100 μL. The mixture was well mixed and incubated on ice for 40 min in the absence of light. 200 μL of 1% PBSA was added, and the mixture was centrifuged at 1200 rpm for 5 min to discard the supernatant, and then washed twice. 1% PBSA was added at 200 μL/tube, and the cells were resuspended and transferred to a flow cytometry tube for testing.

B1: H8L15 (antibody, human IgG1, kappa, V domains shown)
VH: EVQLVQSGAEVKKPGESLKISCQSSGYTFTSYWIGWVRQMPGQGLEWIGIMSPVDSDIRYNPMFRGQVTMSVDKSSSTAYLQWSSLKASDTAMYYCARRRPGQGYFDFWGQGTMVTVSS
VL: EIVLTQSPATLSASPGERATISCRASQSVGTWVAWYQQKPGQAPRSLIYAASNLQSGIPARFSGSGSGTDFTLTISSLEPEDFAVYYCQQYNIYPYTFGQGTRLEIKR
notes: IgG1 (P01857) / kappa (P01834) constant regions
Regarding B1, the concentration giving a half-maximal response (EC50) (in general, the midpoint of the concentration-response curve) came to 1.46 µg/mL.

(Values after patent publication US20260217813A1 (published 2026).)
